In experiment [1] the target is human CD20 (human) (UniProt P11836). As to the kind of experiment: flow cytometry, direct binding to Nalm-6 (ALL) cells, labeled goat anti-human secondary. (Flow cytometry measures light scatter and fluorescence of single cells or particles in a stream.)
Experiment [2] has the same target. As to the kind of experiment: flow cytometry, direct binding to Karpas-422 (NHL) cells, labeled goat anti-human secondary.
Experiment [3] has the same target. As to the kind of experiment: flow cytometry, direct binding to Toledo (DLCL) cells, labeled goat anti-human secondary.
For experiment [4] the target is unchanged. As to the kind of experiment: flow cytometry, direct binding to Namalwa (Burkitt) cells, labeled goat anti-human secondary.
The target is the same in experiment [5]. Nature of the experiment: cell-based or functional assay.
Experiment [6] has the same target. As to the kind of experiment: flow cytometry, direct binding to Farage (DLCL) cells, labeled goat anti-human secondary.
The target is the same in experiment [7]. As to the kind of experiment: flow cytometry, direct binding to Granta-519 (NHL/MCL) cells, labeled goat anti-human secondary.
For experiment [8] the target is unchanged. Nature of the experiment: flow cytometry, direct binding to Raji (Burkitt) cells, labeled goat anti-human secondary.
Experiment [9] has the same target. Nature of the experiment: flow cytometry, direct binding to JVM-13 (CLL) cells, labeled goat anti-human secondary.
Another experiment concerns the target T1, human CD19 (human, UniProt P15391 20-556).
T1 sequence (looked up): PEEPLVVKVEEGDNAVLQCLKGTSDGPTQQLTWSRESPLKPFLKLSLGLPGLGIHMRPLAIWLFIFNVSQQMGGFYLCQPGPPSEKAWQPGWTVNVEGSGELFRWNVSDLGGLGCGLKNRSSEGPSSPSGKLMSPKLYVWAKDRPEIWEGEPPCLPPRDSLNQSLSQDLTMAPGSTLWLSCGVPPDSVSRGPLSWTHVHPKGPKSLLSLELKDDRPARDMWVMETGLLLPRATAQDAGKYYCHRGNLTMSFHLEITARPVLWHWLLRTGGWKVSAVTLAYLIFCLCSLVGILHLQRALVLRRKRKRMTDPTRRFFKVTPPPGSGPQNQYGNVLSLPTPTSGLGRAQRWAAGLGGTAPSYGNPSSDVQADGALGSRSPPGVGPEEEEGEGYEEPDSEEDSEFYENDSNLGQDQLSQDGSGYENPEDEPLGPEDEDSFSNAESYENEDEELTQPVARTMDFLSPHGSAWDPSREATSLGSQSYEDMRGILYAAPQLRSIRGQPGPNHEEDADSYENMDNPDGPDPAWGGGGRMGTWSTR
Nature of the experiment: cell-based or functional assay.

The text below walks through data of US20130330328A1 (AstraZeneca / MedImmune, published 2013).

human CD20 (human), sequence (P11836 whole entry): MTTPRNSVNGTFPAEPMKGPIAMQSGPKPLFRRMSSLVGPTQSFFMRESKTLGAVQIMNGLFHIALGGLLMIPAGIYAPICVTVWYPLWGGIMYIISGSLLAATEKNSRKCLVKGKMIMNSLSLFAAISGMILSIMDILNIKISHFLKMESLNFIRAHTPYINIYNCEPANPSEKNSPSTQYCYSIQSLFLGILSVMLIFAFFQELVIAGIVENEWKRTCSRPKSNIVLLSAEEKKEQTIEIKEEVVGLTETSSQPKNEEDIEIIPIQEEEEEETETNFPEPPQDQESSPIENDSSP

In turn, rituximab (antibody) returned an MFI at 1 µg/ml in the experiment with human CD20 (human) [1] of 26 MFI. In the experiment with human CD20 (human) [2], this molecule showed an MFI at 1 µg/ml of 45 MFI. In addition, the MFI at 1 µg/ml with human CD20 (human) [3] stood at 312 MFI. In the experiment with human CD20 (human) [4], this molecule had an MFI at 1 µg/ml of 298 MFI. In addition, in the experiment with human CD20 (human) [5], the % max. cell kill at 10 ug/ml, DB (DLCL) cells was found to be 46%; the % max. cell kill at 10 ug/ml, Daudi (Burkitt) cells worked out at 51%; the % max. cell kill at 10 ug/ml, Farage (DLCL) cells was found to be 54%; the % max. cell kill at 10 ug/ml, JVM-2 (CLL) cells was determined as 49%. In the experiment with human CD20 (human) [5], this molecule showed a % max. cell kill at 10 ug/ml, JVM-13 (CLL) cells of 50%; a % max. cell kill at 10 ug/ml, Karpas-422 (NHL) cells of 5%; a % max. cell kill at 10 ug/ml, MeC2 (CLL) cells of 42%; a % max. cell kill at 10 ug/ml, Nalm-6 (ALL) cells of 14%. In the experiment with human CD20 (human) [5], this molecule gave a % max. cell kill at 10 ug/ml, Namalwa (Burkitt) cells of 7%; a % max. cell kill at 10 ug/ml, Raji (Burkitt) cells of 40%; a % max. cell kill at 10 ug/ml, Toledo (DLCL) cells of 55%; an ADCC EC50 [ng/ml], DB (DLCL) cells of 0.24 ng/mL. In the experiment with human CD20 (human) [5], the ADCC EC50 [ng/ml], Daudi (Burkitt) cells was determined as 0.041 ng/mL; the ADCC EC50 [ng/ml], Farage (DLCL) cells came to 0.0113 ng/mL; the ADCC EC50 [ng/ml], JVM-2 (CLL) cells was determined as 0.0586 ng/mL; the ADCC EC50 [ng/ml], JVM-13 (CLL) cells stood at 0.0317 ng/mL. Besides, in the experiment with human CD20 (human) [5], the ADCC EC50 [ng/ml], Karpas-1106P cells amounted to 0.0137 ng/mL; the ADCC EC50 [ng/ml], MeC2 (CLL) cells is 0.007 ng/mL; the ADCC EC50 [ng/ml], RL (NHL) cells was 0.0296 ng/mL; the ADCC EC50 [ng/ml], Raji (Burkitt) cells is 0.008 ng/mL. In the experiment with human CD20 (human) [5], the ADCC EC50 [ng/ml], Toledo (DLCL) cells worked out at 0.0319 ng/mL and the EC50, FACS-based ADCC assay with patient CLL samples lay within 639 to 682 pM. Moreover, in the experiment with human CD20 (human) [6], the MFI at 1 µg/ml worked out at 581 MFI. In the experiment with human CD20 (human) [7], the MFI at 1 µg/ml was determined as 403 MFI. Further, the MFI at 1 µg/ml with human CD20 (human) [8] came to 823 MFI. In the experiment with human CD20 (human) [9], this molecule had an MFI at 1 µg/ml of 60 MFI.

B1: afucosylated anti-CD19 mAb 16C4 (16C4-afuc) (antibody, IgG1, V domains shown)
VH: EVQLVESGGGLVQPGGSLRLSCAASGFTFSSSWMNWVRQAPGKGLEWVGRIYPGDGDTNYNVKFKGRFTISRDDSKNSLYLQMNSLKTEDTAVYYCARSGFITTVRDFDYWGQGTLVTVSS
VL: EIVLTQSPDFQSVTPKEKVTITCRASESVDTFGISFINWFQQKPDQSPKLLIHEASNQGSGVPSRFSGSGSGTDFTLTINSLEAEDAATYYCQQTKEVPFTFGGGTKVEIK
Take B1: in the experiment with human CD19, the “ADCC EC50 [ng/ml], Daudi (Burkitt) cells” value is 0.0031 ng/mL; the “ADCC EC50 [ng/ml], Farage (DLCL) cells” value was found to be 0.0141 ng/mL; the “ADCC EC50 [ng/ml], JVM-2 (CLL) cells” value turned out to be 0.188 ng/mL; the “ADCC EC50 [ng/ml], JVM-13 (CLL) cells” value worked out at 0.0368 ng/mL. Further, in the experiment with human CD19, the “ADCC EC50 [ng/ml], Karpas-422 (NHL) cells” value was 0.0181 ng/mL; the “ADCC EC50 [ng/ml], Karpas-1106P cells” value was determined as 0.009 ng/mL; the “ADCC EC50 [ng/ml], MeC2 (CLL) cells” value amounted to 0.0039 ng/mL; the “ADCC EC50 [ng/ml], Nalm-6 (ALL) cells” value came to 0.0199 ng/mL. Besides, in the experiment with human CD19, the “ADCC EC50 [ng/ml], Namalwa (Burkitt) cells” value worked out at 0.012 ng/mL; the “ADCC EC50 [ng/ml], Oci-LY19 (DLCL) cells” value came to 0.0163 ng/mL; the “ADCC EC50 [ng/ml], RL (NHL) cells” value is 0.0073 ng/mL; the “ADCC EC50 [ng/ml], Raji (Burkitt) cells” value turned out to be 0.003 ng/mL. For the same molecule, the “ADCC EC50 [ng/ml], Toledo (DLCL) cells” value with human CD19 was determined as 0.0075 ng/mL.
